Reference: patent publication US20240287160A1

B1: rEBOV-442 IgG1 (antibody, V domains shown)
VH: EVQLVESGGGLVKPGGSLRLSCTGSGGTGFTFKYAGMSWVRQAPGKGPEWIGRIKSRIDGGTTDYAAPVKDRFIVSRDDSRNTLYLQMNSLKTEDTAVYYCATGSGKGPSASFGESYYYYDFINVWGKGTTVTVSS
VL: ESVLTQSPGTLSLSPGERATLSCRASQSISRKYLAWYQQKPGQAPRLLIYGSSSRATGIPDRFSGSGSGTDFTLTISRLEPEDFAVYYCHQYESSPWTFGQGTKVEIK
B2: rEBOV-515 (recombinant wild-type IgG1) (antibody, V domains shown)
VH: QVQLHESGPGLVKPSQTLSLTCTVSGGSINSAGYYWTWIRQHPGKGLEWIGYIDYTGRTYYNPSLESRVIISIDTSKNHFSLRLTSVSAADTAVYYCARESSWVSELGRDNWGQGTLVTVSS
VL: EIVMTQSPATLPVSPGEGATLSCRASQSVFTNLAWYQQKPGQAPRLLIYDASTRATGIPARFSGSGSGTEFTLTISSLQSEDFAVYYCQQYNNWPRTYGQGTRVEVK

Target: EBOV GP on infectious virus (Ebola virus , Mayinga) (UniProt Q05320)
Chain of UniProt Q05320 (Q05320 33-676): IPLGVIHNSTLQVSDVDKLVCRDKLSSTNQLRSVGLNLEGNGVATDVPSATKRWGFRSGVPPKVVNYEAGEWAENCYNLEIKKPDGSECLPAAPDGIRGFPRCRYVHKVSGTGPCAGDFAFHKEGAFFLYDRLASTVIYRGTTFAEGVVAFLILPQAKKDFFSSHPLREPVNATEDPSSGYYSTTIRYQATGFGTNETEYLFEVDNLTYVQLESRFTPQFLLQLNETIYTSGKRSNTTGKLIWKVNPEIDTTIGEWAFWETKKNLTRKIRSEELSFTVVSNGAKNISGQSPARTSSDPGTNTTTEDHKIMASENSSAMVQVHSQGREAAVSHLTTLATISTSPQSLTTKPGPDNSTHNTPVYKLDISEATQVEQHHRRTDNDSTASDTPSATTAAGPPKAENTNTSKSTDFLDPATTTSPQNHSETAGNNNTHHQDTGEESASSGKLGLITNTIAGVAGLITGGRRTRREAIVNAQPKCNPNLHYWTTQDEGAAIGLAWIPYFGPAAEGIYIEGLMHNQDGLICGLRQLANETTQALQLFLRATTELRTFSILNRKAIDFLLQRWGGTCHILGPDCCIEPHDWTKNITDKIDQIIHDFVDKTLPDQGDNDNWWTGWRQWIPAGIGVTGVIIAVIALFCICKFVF
Assay: cell-based or functional assay

| Binder | half maximal inhibitory concentration (IC50), neutralization of VSV/EBOV GP [µg/mL] |
| --- | --- |
| B1 | < 1.5 |
| B2 | < 1.5 |
